# In IntAct's records for PubMed 16990133:
# B1: Pheromone alpha factor receptor (Saccharomyces cerevisiae (Baker's yeast)), P0CI39 (parent)
# chain: MSDAAPSLSNLFYDPTYNPGQSTINYTSIYGNGSTITFDELQGLVNSTVTQAIMFGVRCGAAALTLIVMWMTSRSRKTPIFIINQVSLFLIILHSALYFKYLLSNYSSVTYALTGFPQFISRGDVHVYGATNIIQVLLVASIETSLVFQIKVIFTGDNFKRIGLMLTSISFTLGIATVTMYFVSAVKGMIVTYNDVSATQDKYFNASTILLASSINFMSFVLVVKLILAIRSRRFLGLKQFDSFHILLIMSCQSLLVPSIIFILAYSLKPNQGTDVLTTVATLLAVLSLPLSSMWATAANNASKTNTITSDFTTSTDRFYPGTLSSFQTDSINNDAKSSLRSRLYDLYPRRKETTSDKHSERTFVSETADDIEKNQFYQLPTPTSSKNTRIGPFADASYKEGEVEPVDMYTPDTAADEEARKFWTEDNNNL
# partner: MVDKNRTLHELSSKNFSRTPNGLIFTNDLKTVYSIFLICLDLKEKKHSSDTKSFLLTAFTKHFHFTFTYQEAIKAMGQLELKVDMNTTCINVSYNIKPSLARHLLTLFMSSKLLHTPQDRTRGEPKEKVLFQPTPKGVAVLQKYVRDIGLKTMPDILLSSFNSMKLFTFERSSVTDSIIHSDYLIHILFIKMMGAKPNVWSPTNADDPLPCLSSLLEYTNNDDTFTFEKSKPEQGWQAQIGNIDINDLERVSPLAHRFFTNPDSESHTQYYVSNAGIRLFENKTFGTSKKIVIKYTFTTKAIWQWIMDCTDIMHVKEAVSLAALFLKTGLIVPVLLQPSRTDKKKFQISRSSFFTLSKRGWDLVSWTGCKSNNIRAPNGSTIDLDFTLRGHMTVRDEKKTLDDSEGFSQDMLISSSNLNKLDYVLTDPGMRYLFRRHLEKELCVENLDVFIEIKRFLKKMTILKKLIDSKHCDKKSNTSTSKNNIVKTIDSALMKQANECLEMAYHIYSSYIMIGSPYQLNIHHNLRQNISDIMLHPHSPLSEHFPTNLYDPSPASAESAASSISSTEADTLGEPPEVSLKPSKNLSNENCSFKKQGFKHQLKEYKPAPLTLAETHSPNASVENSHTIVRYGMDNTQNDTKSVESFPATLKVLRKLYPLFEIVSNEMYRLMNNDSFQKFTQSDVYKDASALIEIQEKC
# B2: Pheromone a factor receptor (Saccharomyces cerevisiae), P06783 (parent)
# chain: MSYKSAIIGLCLLAVILLAPPLAWHSHTKNIPAIILITWLLTMNLTCIVDAAIWSDDDFLTRWDGKGWCDIVIKLQVGANIGISCAVTNIIYNLHTILKADSVLPDLSSWTKIVKDLVISLFTPVMVMGFSYLLQVFRYGIARYNGCQNLLSPTWITTVLYTMWMLIWSFVGAVYATLVLFVFYKKRKDVRDILHCTNSGLNLTRFARLLIFCFIIILVMFPFSVYTFVQDLQQVEGHYTFKNTHSSTIWNTIIKFDPGRPIYNIWLYVLMSYLVFLIFGLGSDALHMYSKFLRSIKLGFVLDMWKRFIDKNKEKRVGILLNKLSSRKESRNPFSTDSENYISTCTENYSPCVGTPISQAHFYVDYRIPDDPRKSQNKSKKYLFADKETDDILDEIDLKESRHIPYVTQGQSFDDEISLGGFSKVTLDYSEKLHNSASSNFEGESLCYSPASKEENSSSNEHSSENTAGP
# partner: B1 partner
# B3: Protein SST2 (Saccharomyces cerevisiae), P11972 (parent)
# chain: B1 partner
# partner: B2 chain
# B4: Protein SST2 (Saccharomyces cerevisiae), P11972 (parent)
# chain: B1 partner
# partner: B1 chain
# Variants of: B1
# Settings: with sst2_yeast SST2, P11972
row,Variant,effect of a mutation on the interaction
1,K337R;K352R;K358R;K374R;K387R;K400R;K422R,increasing interaction

# Variants of: B2
# Settings: with sst2_yeast SST2, P11972
row,Variant,effect of a mutation on the interaction
1,K424R;K432R;K453R,increasing interaction

# Variants of: B3
# Settings: with ste3_yeast STE3, P06783
row,Variant,effect of a mutation on the interaction
1,Q304N,disrupting interaction

# Variants of: B4
# Settings: with ste2_yeasx STE2, P0CI39
row,Variant,effect of a mutation on the interaction
1,Q304E,disrupting interaction
2,Q304L,disrupting interaction

# Variants of: B4
# Settings: with ste2_yeasx STE2, P0CI39
# Remark: another data set of the same source
row,Variant,effect of a mutation on the interaction
1,Q304N,disrupting interaction
